Assay results reported in US20230192834A1.

Legend:
TGFβ2 (R&D Systems) [1] = target: T1, TGFβ2 (R&D Systems); assay: cell-based or functional assay
T1 sequence (P61812 303-414, species assumed, looked up): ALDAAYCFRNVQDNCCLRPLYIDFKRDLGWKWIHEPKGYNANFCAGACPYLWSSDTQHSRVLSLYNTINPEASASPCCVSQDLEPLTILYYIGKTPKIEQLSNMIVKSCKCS

TGFβ3 (R&D Systems) [2] = target: T2, TGFβ3 (R&D Systems); assay: cell-based or functional assay
T2 sequence (P10600 301-412, species assumed, looked up): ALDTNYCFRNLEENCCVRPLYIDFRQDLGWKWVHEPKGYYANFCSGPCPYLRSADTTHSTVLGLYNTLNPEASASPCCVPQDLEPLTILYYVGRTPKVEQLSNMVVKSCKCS

TGFβ1 (R&D Systems) [3] = assay: cell-based or functional assay
TGFβ2 (R&D Systems) [4] = target: T1, TGFβ2 (R&D Systems); assay: SPR (Biacore T200), TGFβ amine-coupled to chip, 1:1 fit
TGFβ3 (R&D Systems) [5] = target: T2, TGFβ3 (R&D Systems); assay: as above
TGFβ1 (R&D Systems) [6] = assay: as above

Sequence of TGFβ1 (R&D Systems) (P01137 279-390): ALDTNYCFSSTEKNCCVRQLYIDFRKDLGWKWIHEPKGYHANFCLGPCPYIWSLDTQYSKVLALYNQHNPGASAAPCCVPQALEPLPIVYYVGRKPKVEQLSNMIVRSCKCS

B1: Felinized anti-TGFβ1,2,3 antibody VH3.2 - VL7 (antibody, V domains shown)
VH: DVQLVESGGDLVKPGGSLRLTCVASGYTFSSNVMHWVRQAPGKGLQWVAYVIPIVDIAYYADSVKGRFTISIDNSKNTLYLQMNSLKTEDTATYYCARTLGLVLDAMDYWGQGTLVTVSS
VL: DIVLTQPPSLSVNLGQTARITCRASQSLGSSYLAWYQQKPGQAPKLVTYGASSRAPGIPDRFSGTNSGITATLTISGARAEDEADYYCQQYADSPITFGQGTKLEIKR
- TGFb2 IC50 (SMAD3 phosphorylation in CMVICs, AlphaLISA) (TGFβ2 (R&D Systems) [1]): 0.048 µg/mL
- TGFb3 IC50 (SMAD3 phosphorylation in CMVICs, AlphaLISA) (TGFβ3 (R&D Systems) [2]): 0.018 µg/mL
- TGFb1 IC50 (SMAD3 phosphorylation in CMVICs, AlphaLISA) (TGFβ1 (R&D Systems) [3]): 0.139 µg/mL
- Kd (TGFβ2 (R&D Systems) [4]): 0.589 nM
- Kd (TGFβ3 (R&D Systems) [5]): 0.434 nM
- Kd (TGFβ1 (R&D Systems) [6]): 0.857 nM

B2: Felinized anti-TGFβ1,2,3 antibody VH3.8 - VL7 (antibody, V domains shown)
VH: QVQLVQSGAEVKKPGSSVKVSCKASGYTFSSNVISWVRQAPGKGLQWVAGVIPIVDIANYAQRFKGRFTISIDNSKNTLYLQMNSLKTEDTATYYCASTLGLVLDAMDYWGQGTLVTVSS
VL: DIVLTQPPSLSVNLGQTARITCRASQSLGSSYLAWYQQKPGQAPKLVTYGASSRAPGIPDRFSGTNSGITATLTISGARAEDEADYYCQQYADSPITFGQGTKLEIKR
- TGFb2 IC50 (SMAD3 phosphorylation in CMVICs, AlphaLISA) (TGFβ2 (R&D Systems) [1]): 2.67 µg/mL
- TGFb3 IC50 (SMAD3 phosphorylation in CMVICs, AlphaLISA) (TGFβ3 (R&D Systems) [2]): 0.204 µg/mL
- TGFb1 IC50 (SMAD3 phosphorylation in CMVICs, AlphaLISA) (TGFβ1 (R&D Systems) [3]): 1.36 µg/mL
- Kd (TGFβ2 (R&D Systems) [4]): 1.94 nM
- Kd (TGFβ3 (R&D Systems) [5]): 0.635 nM
- Kd (TGFβ1 (R&D Systems) [6]): 3.07 nM

B3: Felinized anti-TGFβ1,2,3 antibody VH3.2 - VL8 (antibody, V domains shown)
VH: DVQLVESGGDLVKPGGSLRLTCVASGYTFSSNVMHWVRQAPGKGLQWVAYVIPIVDIAYYADSVKGRFTISIDNSKNTLYLQMNSLKTEDTATYYCARTLGLVLDAMDYWGQGTLVTVSS
VL: DIVMTQSPGSLAGSPGQQVTMNCRASQSLGSSYLAWYQQKPGQHPELLIYGASSRAPGVPDRFSGSGSGTDFTLTISNLQAEDVANYYCQQYADSPITFGQGTKLEIKR
- TGFb2 IC50 (SMAD3 phosphorylation in CMVICs, AlphaLISA) (TGFβ2 (R&D Systems) [1]): 0.037 µg/mL
- TGFb3 IC50 (SMAD3 phosphorylation in CMVICs, AlphaLISA) (TGFβ3 (R&D Systems) [2]): 0.008 µg/mL
- TGFb1 IC50 (SMAD3 phosphorylation in CMVICs, AlphaLISA) (TGFβ1 (R&D Systems) [3]): 0.072 µg/mL
- Kd (TGFβ2 (R&D Systems) [4]): 2.13 nM
- Kd (TGFβ3 (R&D Systems) [5]): 0.0466 nM
- Kd (TGFβ1 (R&D Systems) [6]): 0.971 nM

B4: human: feline GC1008 chimera felchimGC1008 (antibody, V domains shown)
VH: QVQLVQSGAEVKKPGSSVKVSCTASGYTPSSNVISNVRQAPGQGLENNGGVIPIVDIANYAQRPKGRVTITADESTSTTYHELSSLRSEDTAVYYCASTLGLVLDAMDYHGQGTLVTVSS
VL: ETVLTQSPGTLSLSPGERATLSCRASQSLGSSYLAWYQQKPGQAPRLLIYGASSRAPGIPDRFSGSGSGTDFTLTISRLEPEDFAVYYCQQYADSPITFGQGTRLEIKR
- TGFb2 IC50 (SMAD3 phosphorylation in CMVICs, AlphaLISA) (TGFβ2 (R&D Systems) [1]): 0.167 µg/mL
- TGFb3 IC50 (SMAD3 phosphorylation in CMVICs, AlphaLISA) (TGFβ3 (R&D Systems) [2]): 0.053 µg/mL
- TGFb1 IC50 (SMAD3 phosphorylation in CMVICs, AlphaLISA) (TGFβ1 (R&D Systems) [3]): 0.176 µg/mL
- Kd (TGFβ2 (R&D Systems) [4]): 1.88 nM
- Kd (TGFβ3 (R&D Systems) [5]): 2.35 nM
- Kd (TGFβ1 (R&D Systems) [6]): 2.58 nM

B5: Felinized anti-TGFβ1,2,3 antibody VH3.2 - VL1 (antibody, V domains shown)
VH: DVQLVESGGDLVKPGGSLRLTCVASGYTFSSNVMHWVRQAPGKGLQWVAYVIPIVDIAYYADSVKGRFTISIDNSKNTLYLQMNSLKTEDTATYYCARTLGLVLDAMDYWGQGTLVTVSS
VL: ETVLTQSPGTLSLSPGERATLSCRASQSLGSSYLAWYQQKPGQAPRLLIYGASSRAPGIPDRFSGSGSGTDFTLTISRLEPEDFAVYYCQQYADSPITFGQGTKLEIKR
- TGFb2 IC50 (SMAD3 phosphorylation in CMVICs, AlphaLISA) (TGFβ2 (R&D Systems) [1]): 0.19 µg/mL
- TGFb3 IC50 (SMAD3 phosphorylation in CMVICs, AlphaLISA) (TGFβ3 (R&D Systems) [2]): 0.053 µg/mL
- TGFb1 IC50 (SMAD3 phosphorylation in CMVICs, AlphaLISA) (TGFβ1 (R&D Systems) [3]): 0.797 µg/mL
- Kd (TGFβ2 (R&D Systems) [4]): 1.84 nM
- Kd (TGFβ3 (R&D Systems) [5]): 0.0051 nM
- Kd (TGFβ1 (R&D Systems) [6]): 0.333 nM

B6: Felinized anti-TGFβ1,2,3 antibody VH2.1 - VL3 (antibody, V domains shown)
VH: QVLLVQSGADVRKPGASVKIFCKASGYTFTSNVISWVRQTPAQGFEWMGGVIPIVDIANYAQRFKGRLVLTADTSTNTAYMELRSLKSADTAVYYCASTLGLVLDAMDYWGQGSLVTVSS
VL: EIQMTQSPSSLSASPGDRVTITCRASQSLGSSYLAWYQQKPGKVPKLLIYGASSRAPGVPSRFSGSGSGTDFTLTISSLEPEDAATYYCQQYADSPITFGQGTKLEIKR
- TGFb2 IC50 (SMAD3 phosphorylation in CMVICs, AlphaLISA) (TGFβ2 (R&D Systems) [1]): 0.277 µg/mL
- TGFb3 IC50 (SMAD3 phosphorylation in CMVICs, AlphaLISA) (TGFβ3 (R&D Systems) [2]): 0.132 µg/mL
- TGFb1 IC50 (SMAD3 phosphorylation in CMVICs, AlphaLISA) (TGFβ1 (R&D Systems) [3]): 0.597 µg/mL
- Kd (TGFβ2 (R&D Systems) [4]): 1.91 nM
- Kd (TGFβ3 (R&D Systems) [5]): 2.6 nM
- Kd (TGFβ1 (R&D Systems) [6]): 2.89 nM

B7: Felinized anti-TGFβ1,2,3 antibody VH3.2 - VL3 (antibody, V domains shown)
VH: DVQLVESGGDLVKPGGSLRLTCVASGYTFSSNVMHWVRQAPGKGLQWVAYVIPIVDIAYYADSVKGRFTISIDNSKNTLYLQMNSLKTEDTATYYCARTLGLVLDAMDYWGQGTLVTVSS
VL: EIQMTQSPSSLSASPGDRVTITCRASQSLGSSYLAWYQQKPGKVPKLLIYGASSRAPGVPSRFSGSGSGTDFTLTISSLEPEDAATYYCQQYADSPITFGQGTKLEIKR
- TGFb2 IC50 (SMAD3 phosphorylation in CMVICs, AlphaLISA) (TGFβ2 (R&D Systems) [1]): 0.14 µg/mL
- TGFb3 IC50 (SMAD3 phosphorylation in CMVICs, AlphaLISA) (TGFβ3 (R&D Systems) [2]): 0.023 µg/mL
- TGFb1 IC50 (SMAD3 phosphorylation in CMVICs, AlphaLISA) (TGFβ1 (R&D Systems) [3]): 0.132 µg/mL
- Kd (TGFβ2 (R&D Systems) [4]): 0.751 nM
- Kd (TGFβ3 (R&D Systems) [5]): 0.144 nM
- Kd (TGFβ1 (R&D Systems) [6]): 0.66 nM

B8: Felinized anti-TGFβ1,2,3 antibody VH2.1 - VL8 (antibody, V domains shown)
VH: QVLLVQSGADVRKPGASVKIFCKASGYTFTSNVISWVRQTPAQGFEWMGGVIPIVDIANYAQRFKGRLVLTADTSTNTAYMELRSLKSADTAVYYCASTLGLVLDAMDYWGQGSLVTVSS
VL: DIVMTQSPGSLAGSPGQQVTMNCRASQSLGSSYLAWYQQKPGQHPELLIYGASSRAPGVPDRFSGSGSGTDFTLTISNLQAEDVANYYCQQYADSPITFGQGTKLEIKR
- TGFb2 IC50 (SMAD3 phosphorylation in CMVICs, AlphaLISA) (TGFβ2 (R&D Systems) [1]): 0.031 µg/mL
- TGFb3 IC50 (SMAD3 phosphorylation in CMVICs, AlphaLISA) (TGFβ3 (R&D Systems) [2]): 0.124 µg/mL
- TGFb1 IC50 (SMAD3 phosphorylation in CMVICs, AlphaLISA) (TGFβ1 (R&D Systems) [3]): 0.266 µg/mL
- Kd (TGFβ2 (R&D Systems) [4]): 3.41 nM
- Kd (TGFβ3 (R&D Systems) [5]): 1.06 nM
- Kd (TGFβ1 (R&D Systems) [6]): 3.31 nM

B9: Felinized anti-TGFβ1,2,3 antibody VH2.2 - VL7 (antibody, V domains shown)
VH: QVLLVQSGADVRKPGASVKIFCKASGYTFSSNVMHWVRQTPAQGFEWMGSVIPIVDIATYARRFQGRLVLTADTSTNTAYMELRSLKSADTAVYYCARTLGLVLDAMDYWGQGSLVTVSS
VL: DIVLTQPPSLSVNLGQTARITCRASQSLGSSYLAWYQQKPGQAPKLVTYGASSRAPGIPDRFSGTNSGITATLTISGARAEDEADYYCQQYADSPITFGQGTKLEIKR
- TGFb2 IC50 (SMAD3 phosphorylation in CMVICs, AlphaLISA) (TGFβ2 (R&D Systems) [1]): 20.6 µg/mL
- TGFb3 IC50 (SMAD3 phosphorylation in CMVICs, AlphaLISA) (TGFβ3 (R&D Systems) [2]): 2.2 µg/mL
- TGFb1 IC50 (SMAD3 phosphorylation in CMVICs, AlphaLISA) (TGFβ1 (R&D Systems) [3]): 4.59 µg/mL
- Kd (TGFβ2 (R&D Systems) [4]): 2.16 nM
- Kd (TGFβ3 (R&D Systems) [5]): 3.52 nM
- Kd (TGFβ1 (R&D Systems) [6]): 4.95 nM

B10: Felinized anti-TGFβ1,2,3 antibody VH6.1 - VL3 (antibody, V domains shown)
VH: QVLLVQSGAEVRTPGASVKIFCKASGYGFTSNVISWVRQSPAQGLEWMGGVIPIVDIANYAQRFKGRLTLTADTSTDTAYMELSSLRSADTAMYYCASTLGLVLDAMDYWGQGTLVTVSS
VL: EIQMTQSPSSLSASPGDRVTITCRASQSLGSSYLAWYQQKPGKVPKLLIYGASSRAPGVPSRFSGSGSGTDFTLTISSLEPEDAATYYCQQYADSPITFGQGTKLEIKR
- TGFb2 IC50 (SMAD3 phosphorylation in CMVICs, AlphaLISA) (TGFβ2 (R&D Systems) [1]): 0.223 µg/mL
- TGFb3 IC50 (SMAD3 phosphorylation in CMVICs, AlphaLISA) (TGFβ3 (R&D Systems) [2]): 0.014 µg/mL
- TGFb1 IC50 (SMAD3 phosphorylation in CMVICs, AlphaLISA) (TGFβ1 (R&D Systems) [3]): 0.425 µg/mL
- Kd (TGFβ2 (R&D Systems) [4]): 2.99 nM
- Kd (TGFβ3 (R&D Systems) [5]): 3.57 nM
- Kd (TGFβ1 (R&D Systems) [6]): 3.54 nM
